Read-outs that look alike come from different tables or passages of the source.
Columns and labels:
[1] = biological target: T1, CTCF ZF3-ZF11 (Homo sapiens, UniProt P49711 322-577); assay: X-ray crystallography
T1 sequence: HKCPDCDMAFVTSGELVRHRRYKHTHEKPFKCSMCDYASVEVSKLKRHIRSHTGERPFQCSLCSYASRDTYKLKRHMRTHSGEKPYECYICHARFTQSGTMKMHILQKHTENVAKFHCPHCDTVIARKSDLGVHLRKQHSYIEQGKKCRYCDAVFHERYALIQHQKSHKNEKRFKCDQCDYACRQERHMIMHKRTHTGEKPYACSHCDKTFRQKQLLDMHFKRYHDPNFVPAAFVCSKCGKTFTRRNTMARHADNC

[2] = biological target: T1, CTCF ZF3-ZF11; assay: X-ray crystallography; remark: listed apart in the source
[3] = biological target: T2, CTCF ZF1-ZF7 (Homo sapiens, UniProt P49711 263-465); assay: fluorescence polarization
T2 sequence: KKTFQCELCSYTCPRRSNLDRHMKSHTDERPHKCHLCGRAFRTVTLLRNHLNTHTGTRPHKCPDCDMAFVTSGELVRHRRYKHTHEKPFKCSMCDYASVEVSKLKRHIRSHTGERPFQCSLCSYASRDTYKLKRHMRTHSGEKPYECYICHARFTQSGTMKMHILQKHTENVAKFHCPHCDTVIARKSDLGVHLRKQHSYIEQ

[4] = biological target: T2, CTCF ZF1-ZF7; assay: X-ray crystallography

B1: 35-4 (dsDNA)
DNA 1: GTGCAGTACCACATTTAACCAGCAGGGGGCGCTAA
DNA 2: TTAGCGCCCCCTGCTGGTTAAATGTGGTACTGCAC
binding result [1]: binds

B2: 19-bp (dsDNA)
DNA 1: TGCGCCCCCTGCTGGTCCT
DNA 2: AGGACCAGCAGGGGGCGCA
binding result [2]: binds

B3: FP oligo X:Y=A:T (dsDNA)
DNA 1: AGGACCAGCAGGGGACGCA
DNA 2: TGCGTCCCCTGCTGGTCCT
binding signal [3]: 7 fold reduced affinity vs G:C

B4: 23-bp (dsDNA)
DNA 1: GCCAGCAGGGGGCGCTAGTGAGG
DNA 2: CCTCACTAGCGCCCCCTGCTGGC
binding result [4]: binds

Reference: paper PMC10484683
